US20120065379A1 (Chugai, published 2012)

What was measured:
[1] = biological target: T1, Soluble human FcRn (complex of FcRn and β2-microglobulin) (human, UniProt P55899 24-290; P61769 21-119); assay: SPR (Biacore 3000), pH 6.0; antibody captured, human FcRn as analyte; steady state affinity
T1 construct: Co-expressed in HEK293H cells and purified from the culture supernatant; also called hFcRn
Protocol: (§1) Human FcRn was prepared according to the method described in Reference Example 2. The binding to human FcRn was assessed using Biacore 3000. An antibody was bound to Protein L or rabbit anti-human IgG Kappa chain antibody immobilized onto a sensor chip, human FcRn was added as an analyte for interaction with the antibody, and the affinity (KD) was calculated from the amount of bound human FcRn. Specifically, Protein L or rabbit anti-human IgG Kappa chain antibody was immobilized onto sensor chip CMS (BIACORE) by the amine coupling method using 50 mM Sodium-phosphate buffer (pH 6.0) containing 150 mM NaCl as the running buffer. Then, IL6R H0-IgG1/L0-k0 and IL6R H0-M82/L0-k0 was each diluted with a running buffer containing 0.02% Tween20, and injected to be bound to the chip. Human FcRn was then injected and the binding of the human FcRn to antibody was assessed.
(§2) The affinity was computed using BIAevaluation Software. The obtained sensorgram was used to calculate the amount of hFcRn bound to the antibody immediately before the end of human FcRn injection. The affinity of the antibody for human FcRn was calculated by fitting with the steady state affinity method.

[2] = biological target: T1, Soluble human FcRn (complex of FcRn and …); assay: SPR (Biacore 3000), pH 6.0; antibody captured on Protein L or rabbit anti-human IgG Kappa chain antibody, human FcRn as analyte; steady state affinity fit
Protocol: as §1, §2

T1 sequence (P55899 24-290 limits assumed, chain 1 of 2): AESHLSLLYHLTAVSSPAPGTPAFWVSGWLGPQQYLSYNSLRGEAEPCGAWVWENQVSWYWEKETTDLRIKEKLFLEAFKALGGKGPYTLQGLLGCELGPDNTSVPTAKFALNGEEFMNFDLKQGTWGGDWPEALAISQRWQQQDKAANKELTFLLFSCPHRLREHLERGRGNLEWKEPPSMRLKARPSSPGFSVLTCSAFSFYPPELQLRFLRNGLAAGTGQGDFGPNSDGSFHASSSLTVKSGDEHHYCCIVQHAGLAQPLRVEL
T1 sequence (P61769 21-119 limits assumed, chain 2 of 2): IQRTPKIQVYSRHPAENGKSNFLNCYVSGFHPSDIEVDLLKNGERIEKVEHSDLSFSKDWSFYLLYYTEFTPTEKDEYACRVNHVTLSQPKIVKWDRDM

B1: IL6R H0-M82/L0-k0 (antibody, IgG2)
heavy: QVQLQESGPGLVRPSQTLSLTCTVSGYSITSDHAWSWVRQPPGRGLEWIGYISYSGITTYNPSLKSRVTMLRDTSKNQFSLRLSSVTAADTAVYYCARSLARTTAMDYWGQGSLVTVSSASTKGPSVFPLAPCSRSTSESTAALGCLVKDYFPEPVTVSWNSGALTSGVHTFPAVLQSSGLYSLSSVVTVPSSNFGTQTYTCNVDHKPSNTKVDKTVERKSSVECPPCPAPPVAGPSVFLFPPKPKDTLMISRTPEVTCVVVDVSQEDPEVQFNWYVDGVEVHNAKTKPREEQFNSTFRVVSVLTVVHQDWLNGKEYKCKVSNKGLPAPIEKTISKTKGQPREPQVYTLPPSQEEMTKNQVSLTCLVKGFYPSDIAVEWESNGQPENNYKTTPPMLDSDGSFFLYSKLTVDKSRWQEGNVFSCSVMHEALHNHYTQKSLSLSP
light: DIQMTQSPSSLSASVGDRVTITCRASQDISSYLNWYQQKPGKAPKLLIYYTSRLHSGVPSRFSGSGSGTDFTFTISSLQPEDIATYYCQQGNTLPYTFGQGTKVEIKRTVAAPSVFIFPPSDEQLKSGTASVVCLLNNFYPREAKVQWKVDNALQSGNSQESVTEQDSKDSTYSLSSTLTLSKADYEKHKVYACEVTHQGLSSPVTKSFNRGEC
notes: Same variable regions as m1; The M82 constant region is an IgG2 variant with C219S, C220S, H268Q, R355Q and Q419E (EU numbering) and with Gly446 and Lys447 deleted; also called M82-k0
- fold increase of binding compared to IL6R H0-IgG1/L0-k0 [1]: ~1.34 times
- Kd [2]: 1.21 µM
